Experimental data: US20060094672A1 (University of Texas, published 2006)
Bridge positions count the residues as written; N and C are the ends. Square brackets hold non-standard residues; d marks the D form. Ends that are not written are not given here. pY = N[C@@H](Cc1ccc(OP(=O)(O)O)cc1)C(=O)O

T1: prohibitin (B cell receptor associated protein; prohibitin receptor protein complex) (mouse)
T1 sequence (P67778 2-272, looked up): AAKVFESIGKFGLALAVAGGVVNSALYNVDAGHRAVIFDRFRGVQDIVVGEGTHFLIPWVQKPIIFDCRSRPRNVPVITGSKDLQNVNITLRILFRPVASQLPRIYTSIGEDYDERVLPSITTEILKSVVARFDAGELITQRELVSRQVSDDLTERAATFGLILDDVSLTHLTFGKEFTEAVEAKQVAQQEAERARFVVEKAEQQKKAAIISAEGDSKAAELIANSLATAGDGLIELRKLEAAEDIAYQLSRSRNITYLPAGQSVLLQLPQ


Legend:
[1] = target: GST-β5cyto (GST fusion protein of the integrin β5 cytoplasmic domain) (UniProt P18084); assay: phage binding to coated wells; β5 colonies divided by BSA colonies
[2] = target: GST-β5cyto (GST fusion protein of the integrin β5 cytoplasmic domain) (UniProt P18084); assay: phage binding to coated wells; β5 colonies divided by GST colonies
[3] = target: GST-β5cyto (GST fusion protein of the integrin β5 cytoplasmic domain) (UniProt P18084); assay: phage binding to β5 cytoplasmic domain wells; colonies with Fyn-phosphorylated phage divided by colonies with unphosphorylated phage
[4] = target: GST-β3cyto (GST fusion protein of the integrin β3 cytoplasmic domain) (UniProt P05106); assay: phage binding to coated wells; β3 colonies divided by GST colonies
[5] = target: GST-β3cyto (GST fusion protein of the integrin β3 cytoplasmic domain) (UniProt P05106); assay: phage binding to coated wells; β3 colonies divided by BSA colonies
[6] = target: GST-β3cyto (GST fusion protein of the integrin β3 cytoplasmic domain) (UniProt P05106); assay: phage binding to β3 cytoplasmic domain wells; colonies with Fyn-phosphorylated phage divided by colonies with unphosphorylated phage
[7] = target: T1, prohibitin (B cell receptor associated protein; prohibitin receptor protein complex) (mouse); assay: immunoprecipitation from mouse adipose tissue extract with peptide-(KLAKLAK)2 conjugates, SDS-PAGE (data not shown)
[8] = target: Aminopeptidase A (APA, EC 3.4.11.7) (UniProt Q07075 1-957, limits assumed); assay: cell-based or functional assay
[9] = target: GST-β5cyto (GST fusion protein of the integrin β5 cytoplasmic domain) (UniProt P18084); assay: phage binding to coated microtiter wells; colonies from β5-GST wells divided by colonies from BSA wells
[10] = target: GST-β5cyto (GST fusion protein of the integrin β5 cytoplasmic domain) (UniProt P18084); assay: phage binding to coated microtiter wells; colonies from β5-GST wells divided by colonies from GST wells
[11] = target: GST-β3cyto (GST fusion protein of the integrin β3 cytoplasmic domain) (UniProt P05106); assay: phage binding to coated microtiter wells; colonies from β3-GST wells divided by colonies from BSA wells
[12] = target: GST-β3cyto (GST fusion protein of the integrin β3 cytoplasmic domain) (UniProt P05106); assay: phage binding to coated microtiter wells; colonies from β3-GST wells divided by colonies from GST wells

GST-β3cyto (GST fusion protein of the integrin β3 cytoplasmic domain), sequence (P05106 742-788): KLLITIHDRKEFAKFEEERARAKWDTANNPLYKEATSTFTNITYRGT
GST-β5cyto (GST fusion protein of the integrin β5 cytoplasmic domain), sequence (P18084 743-799): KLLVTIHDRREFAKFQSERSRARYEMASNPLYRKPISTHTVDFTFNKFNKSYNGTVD
Aminopeptidase A (APA, EC 3.4.11.7), sequence (Q07075 whole entry, the tested form may be a part): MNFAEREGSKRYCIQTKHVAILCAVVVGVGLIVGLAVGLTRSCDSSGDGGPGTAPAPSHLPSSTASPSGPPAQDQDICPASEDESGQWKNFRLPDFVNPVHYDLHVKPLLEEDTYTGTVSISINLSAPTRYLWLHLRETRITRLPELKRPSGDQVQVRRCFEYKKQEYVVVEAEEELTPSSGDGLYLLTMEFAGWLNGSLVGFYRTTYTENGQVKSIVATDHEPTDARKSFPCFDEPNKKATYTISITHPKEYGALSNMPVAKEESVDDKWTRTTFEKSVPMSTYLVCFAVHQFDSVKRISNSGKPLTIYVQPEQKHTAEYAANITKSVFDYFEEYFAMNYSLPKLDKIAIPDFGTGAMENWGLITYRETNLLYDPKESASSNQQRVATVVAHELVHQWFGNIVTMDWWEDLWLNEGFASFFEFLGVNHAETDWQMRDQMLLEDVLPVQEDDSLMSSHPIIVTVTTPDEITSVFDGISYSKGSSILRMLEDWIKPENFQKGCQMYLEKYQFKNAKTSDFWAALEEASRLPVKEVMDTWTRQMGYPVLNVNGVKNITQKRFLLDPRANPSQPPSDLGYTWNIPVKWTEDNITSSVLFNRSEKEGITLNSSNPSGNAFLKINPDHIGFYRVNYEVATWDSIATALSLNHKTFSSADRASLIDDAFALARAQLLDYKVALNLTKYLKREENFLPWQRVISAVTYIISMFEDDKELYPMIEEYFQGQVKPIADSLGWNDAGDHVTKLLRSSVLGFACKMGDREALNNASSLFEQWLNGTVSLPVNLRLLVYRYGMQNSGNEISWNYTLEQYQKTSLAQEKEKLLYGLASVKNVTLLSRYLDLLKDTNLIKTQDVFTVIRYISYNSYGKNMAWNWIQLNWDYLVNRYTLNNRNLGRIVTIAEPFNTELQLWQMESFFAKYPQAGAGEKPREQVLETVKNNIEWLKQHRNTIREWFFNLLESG

Binder | β3 or β5/BSA [1] | β3 or β5/GST [2] | Phos/Unphos [3] | β3 or β5/GST [4] | β3 or β5/BSA [5] | Phos/Unphos [6] | other results
TMLR[pY]FMFP (also: displayed on phage pIII) [Fyn-phosphorylated phage displaying … (SEQ ID NO:53)] | 3.8 | 2.3 | 4.2 |  |  |  | 
MLLG[pY]RFEK (also: displayed on phage pIII) [Fyn-phosphorylated phage displaying … (SEQ ID NO:51)] |  |  |  | 3.5 | 2.7 | 2.5 | 
CKGGRAKDCGG[dK][dL][dA][dK][dL][dA][dK][dK][dL][dA][dK][dL][dA][dK] (disulfide 1-9) [… (SEQ ID NO:22) conjugated to (KLAKLAK)2 (SEQ ID NO:1)] |  |  |  |  |  |  | fold enrichment in the … precipitated fraction compared to the CARAC precipitated fraction [7]: > 10 >fold
CPRECESIC (disulfide (positions not given here); not fully specified; also: mix of six MS peaks: possibly different disulfide positions and dimers) [soluble CPRECESIC (SEQ ID NO:56) peptide] |  |  |  |  |  |  | IC50 for inhibition of APA enzyme activity (α-glutamyl-p-nitroanilide, SK-RC-49/APA cells) [8]: 800 µM
CKLWQEDGY (also: displayed on phage pIII) [phage displaying … (SEQ ID NO:42)] |  |  |  |  |  |  | β5/BSA Ratio [9]: 665; β5/GST Ratio [10]: 1.8
RAIL[pY]RLAN (also: displayed on phage pIII) [Fyn-phosphorylated phage displaying … (SEQ ID NO:50)] |  |  |  | 1.3 | 20 | 2.8 | 
GGGS[pY]RHVE (also: displayed on phage pIII) [Fyn-phosphorylated phage displaying … (SEQ ID NO:49)] |  |  |  | 1.5 | 5.3 | 13.2 | 
TLRK[pY]FHSS (also: displayed on phage pIII) [Fyn-phosphorylated phage displaying … (SEQ ID NO:54)] | 15.2 | 3.8 | 3.8 |  |  |  | 
AGWLYMSWK [phage displaying … (SEQ ID NO:35)] |  |  |  |  |  |  | β3/BSA Ratio [11]: 2.4; β3/GST Ratio [12]: 1.8
TMLR[pY]TVRL (also: displayed on phage pIII) [Fyn-phosphorylated phage displaying … (SEQ ID NO:52)] | 2.2 | 3.4 | 14.3 |  |  |  | 
